Data on 105 substances can be found in the supplement of paper PMC12042874.

± gives the uncertainty stated by the source.

The data set in a line: amyloid nucleation score (Sup35N fusion, yeast selection) (log enrichment); library NNK2; higher = more nucleation; inactive = no reads after selection. The method, boiled down: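 Plasmid inserts were Illumina-sequenced at input and output from psi-negative yeast expressing Sup35N fused to peptides of 20 random codons. The yeast were induced with 100 μM copper sulfate for 24 hours and grown 7 days at 30°C on medium lacking adenine and uracil, and sequences with under 100 input reads were excluded. Nucleation score is the DiMSum log enrichment of output over input reads, centred on the mode score of non-aggregating sequences.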
In the case of SFRRSE, the amyloid nucleation score is -0.388 ± 1. With FYPVFKSMLVMAGVTRHLAR, the amyloid nucleation score is -0.487 ± 0.26. Consider IYGLYG, for which the amyloid nucleation score was 0.515 ± 0.51. In the case of QPPMRVYSLVMLCDAVSSKD it was 0.339 ± 0.56; in that of VKTRTFRTCRSHRIEFMDWV, -0.064 ± 1.1. With LMRFSDVDY, the amyloid nucleation score entry is “inactive”.

Substance SKDRCEVQLGKFTCLFMFDY displayed an amyloid nucleation score of -1.47 ± 0.55. For the substance CKVHFW, the amyloid nucleation score worked out at 0.596 ± 0.62. In the case of FRWYFNVAATCGNRAPGRNV it was 1.31 ± 0.18; in that of NLGDVSYTSSFG, 1.31 ± 0.43.

Substance GCLMVGINGCPIGPM showed an amyloid nucleation score of -1.11 ± 1.1.

In turn, ICFNDILQFTS returned an amyloid nucleation score of -0.498 ± 0.44. Substance ECSFVMKY came in with an amyloid nucleation score of 3.41 ± 0.074. In turn, SLLKNPASMCSNSIFCAYVG had an amyloid nucleation score of 8.708 ± 0.069. In the case of VSNCLQGLYFCWSTGSRSRI, the amyloid nucleation score amounted to 6.796 ± 0.03. In the case of VLIFRAMIFDDKALVGMKD it was -0.521 ± 0.45; in that of YGILCAKLTAVCL, 1.44 ± 0.36. For the substance RFQELMTK, the amyloid nucleation score came to 0.626 ± 0.8. The substance CAQVRLQSAFIYSYMASVGR registered an amyloid nucleation score of 3.32 ± 0.056. For HIGIWGRQTLR, the amyloid nucleation score is 3.55 ± 0.049. In the case of GKRYCWSLAVNRGFTDTLGV it was 0.261 ± 0.46; in that of AISGWCNMNCKLGKQWDYLV, 1.25 ± 0.66; in that of VMCFVDRDRFCNLFKLCLEF, -1.45 ± 0.49. Consider RHGVVLSNVSKSVVSVPGAK, for which the amyloid nucleation score is -0.409 ± 0.76. Turning to SAFSVSYTKSAFSARTVDIK, the amyloid nucleation score was -0.948 ± 0.33.

With NEIQANNCGPKILKLYQNMR, the amyloid nucleation score is 0.579 ± 0.8. As for LEGGGGFSRAL, the amyloid nucleation score is -0.651 ± 1.1. For the substance NHRETVFVVIASRSWHARFG, the amyloid nucleation score was -0.19 ± 1. With AQNLGFHEMGLAKCCRVGLY, the amyloid nucleation score was found to be 0.233 ± 0.44. NLKIMLIRTIVYHDWSTMHL came in with an amyloid nucleation score of 7.161 ± 0.061. QLVPRHNGTAKGCSGPLTRV: the amyloid nucleation score stood at 0.402 ± 0.26.

KAKIATKVSLFLLSGYVDLQ registered an amyloid nucleation score of -0.356 ± 0.65. The result for LCNMHIMRFNM reads -1.07 ± 1.1; that for TYLKHVRKS, 1.11 ± 0.24. With VVKRARLSWPFIARKYTSMV, the amyloid nucleation score was 0.116 ± 0.4. In turn, SCPIRTL had an amyloid nucleation score of 0.424 ± 0.43. The result for FIYLIMFCKMVQWTIAFFKA reads -0.658 ± 0.64; that for RHICIFMNRMSYMDLWPALL, “inactive”; that for VSLKFLQGGAKDLRWSCGGE, 1.78 ± 0.23. With EICLHLQAYAIKQCGLLGTP, the amyloid nucleation score was 0.407 ± 0.26.

On to FIERSSLEDNVSSALAISR, for which the amyloid nucleation score worked out at 0.704 ± 0.47. SIANYGFVLNNHIRFFRSSG: the amyloid nucleation score came out at 2.32 ± 0.15. VRANLGAGFRFKSETGDAS came in with an amyloid nucleation score of 0.861 ± 0.14.

Substance SGNIIFNRRMRRAALEWDIT gave an amyloid nucleation score of -0.125 ± 0.63.

As for TGRHKVTDLRIWILWSYTGA, the amyloid nucleation score is -0.398 ± 0.63. With SWTHRAGYIKRMSE, the amyloid nucleation score is -0.212 ± 0.55. IRWGNRLTLERGFFKPFY: the amyloid nucleation score result was “inactive”. In the case of NEADE it was -0.119 ± 0.46. For NYCMRGVASIG, the amyloid nucleation score is -0.475 ± 0.45. The result for VLSMVVDKCLCTMCIQAIVL reads 9.711 ± 0.058; that for SLHLRRYIFNT, 7.339 ± 0.059.

Substance VRWFCSVISF displayed an amyloid nucleation score of 2.39 ± 0.14. The result for IMYWRGFWLFASLFTILWWF reads “inactive”; that for TRVFTSWFVV, 0.342 ± 0.65; that for VTCNPHGLSHD, “inactive”.

Turning to VSYTHTETTPGLTSLWLVLM, the amyloid nucleation score turned out to be 6.89 ± 0.077. Take SYFWRYFM: the amyloid nucleation score turned out to be 0.087 ± 0.79. GSYVTAISAHFVGKLCASRI returned an amyloid nucleation score of 0.343 ± 0.8. For the substance IFENI, the amyloid nucleation score entry was “inactive”. The result for GSKGIRRYCLTIFVSPVQSA reads 0.895 ± 0.81; that for YIRLQAIQSEVERSSVPVIK, 2.16 ± 0.083; that for MTSFGYHMNLCH, 0.072 ± 1.1.

Substance PCGLIV showed an amyloid nucleation score of 0.22 ± 0.63. In turn, YIECFTSMQLP registered an amyloid nucleation score of -0.397 ± 0.79. As for FSGFYLWSVDFVMLLGAWAH, the amyloid nucleation score result is “inactive”.

Consider TNAIYRGVLGSMDQGT, for which the amyloid nucleation score entry is “inactive”.

Consider MTNMT, for which the amyloid nucleation score stood at 1.18 ± 0.61. The substance LSVSKSSIYLLLMRSRGHG returned an amyloid nucleation score of 0.175 ± 0.55.

PTRVKIFFQRMCGVVAVGWS came in with an amyloid nucleation score of 1.42 ± 0.39.

In the case of RNLGIHKSLFNSAYARAWAV, the amyloid nucleation score is -0.771 ± 0.49.

Take WWKGWARTNNVMRAFVVMFY: the amyloid nucleation score was -0.655 ± 0.44. In turn, CERWRFI came in with an amyloid nucleation score of -0.02 ± 1.1.

Take LSFDEVTLVRAKFHGSVIRL: the amyloid nucleation score was 4.86 ± 0.06.

With ERNCISYHKGIFDNNEC, the amyloid nucleation score result is “inactive”. The substance FMRWSRISRSGYNDDGSLVG showed an amyloid nucleation score of 3.52 ± 0.067.

Take SKMICPHYK: the amyloid nucleation score turned out to be 5.69 ± 0.071. YFSYPC showed an amyloid nucleation score of -1.82 ± 1. In turn, RGMVE showed an amyloid nucleation score of 0.587 ± 0.53.

FGRWHYLQRGFKRSGVHFNR: the amyloid nucleation score result is “inactive”. Substance MGSGYSQCAGRGWARVERLG displayed an amyloid nucleation score of 1.44 ± 0.3. EYQLDHVY gave an amyloid nucleation score of -0.711 ± 1.1. IRFVESSQMKVLPRGGVGLN: the amyloid nucleation score entry was “inactive”. In turn, CCHHR gave an amyloid nucleation score of 1.08 ± 0.28. TGMQMFMVVWLGQLDRSDTI yielded an amyloid nucleation score of 1.07 ± 0.28. For the substance DISCCLYRDTPVWERKDYVA, the amyloid nucleation score was -0.506 ± 1. The result for WGWKYMLEELN reads -0.177 ± 0.55.

As to RLSVAFRRVRDRYVLLIFLP, the amyloid nucleation score turned out to be 0.548 ± 0.55. In the case of SVMIWIIASNIDILSVVFRL, the amyloid nucleation score is -0.573 ± 1.1. The substance LFLLFFRFFQMGDLHYIIAI gave an amyloid nucleation score of -0.661 ± 1.1. As to NLCRQVACTLLSLPSDTPRF, the amyloid nucleation score came out at 8.842 ± 0.03. LAAKFCCQLSFGSFCDCIFR showed an amyloid nucleation score of 7.82 ± 0.084. Substance SHCTLKNLV came in with an amyloid nucleation score of -0.27 ± 1.1. IIIGFWVCWNSIASWSIVGR showed an amyloid nucleation score of -1.78 ± 1.1. Take LFFDTCRIPRSYWSCLEEES: the amyloid nucleation score is -0.206 ± 0.42. Regarding IMNMCISDKFSIVVSSYVRY, the amyloid nucleation score turned out to be 0.958 ± 0.36. SLYMFLVSALVQSYLLV yielded an amyloid nucleation score of -1.4 ± 0.45. IISTIT had an amyloid nucleation score of 1.49 ± 0.14. YWKVCRM had an amyloid nucleation score of 0.356 ± 0.74. Consider ASGKWHSCAGSGDYM, for which the amyloid nucleation score is -0.453 ± 0.33.

Take WSNPTKLFHELAVQLNYTMP: the amyloid nucleation score was 0.903 ± 0.74. In the case of RSCYVYRN it was “inactive”. As for IPFASLNEFTSATY, the amyloid nucleation score was 3.07 ± 0.1. Regarding GVVYLGNRLISFSRSLSLKT, the amyloid nucleation score came out at 0.387 ± 0.45. The result for YFYPFLCLTKNQLVLSNRRT reads 4.47 ± 0.073; that for NSYSGAVLT, -0.464 ± 1.1.
